Test results from publication PMC4468156, “Essential Role for an M17 Leucine Aminopeptidase in Encystation of Acanthamoeba castellanii” (PLoS ONE, 2015).

Tests used:
[1] = target: T1, AcLAPr (recombinant AcLAP, M17 leucine aminopeptidase) (Acanthamoeba castellanii, UniProt A0A060A630); assay: inhibition of Leu-AMC hydrolysis, fluorometric; assay type: biochemical
T1 construct: gene LAP; pCold TF vector, E. coli BL21 (pKJE7), Ni-NTA; N-terminal His6-trigger factor tag removed with thrombin
T1 sequence (A0A060A630 1-579): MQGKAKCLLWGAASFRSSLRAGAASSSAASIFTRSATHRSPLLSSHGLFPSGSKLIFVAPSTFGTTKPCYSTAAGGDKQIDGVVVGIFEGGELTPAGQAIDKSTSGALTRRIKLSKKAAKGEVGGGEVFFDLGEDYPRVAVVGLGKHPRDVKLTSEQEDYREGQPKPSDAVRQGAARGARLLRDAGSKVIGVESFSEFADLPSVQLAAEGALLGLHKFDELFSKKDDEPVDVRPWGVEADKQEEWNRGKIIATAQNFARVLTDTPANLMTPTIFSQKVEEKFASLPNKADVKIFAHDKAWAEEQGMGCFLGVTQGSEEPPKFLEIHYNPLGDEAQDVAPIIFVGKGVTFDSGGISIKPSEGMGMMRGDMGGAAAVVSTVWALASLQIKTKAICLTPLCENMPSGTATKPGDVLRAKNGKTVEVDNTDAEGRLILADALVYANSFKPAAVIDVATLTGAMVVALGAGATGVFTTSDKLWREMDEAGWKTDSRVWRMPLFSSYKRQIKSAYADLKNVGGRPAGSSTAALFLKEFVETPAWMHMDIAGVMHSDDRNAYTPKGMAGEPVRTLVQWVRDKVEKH
Description: inhibition of Leu-AMC hydrolysis, fluorometric on AcLAPr (recombinant AcLAP, M17 leucine aminopeptidase)

purified protein [2] = substrate: CSCC[C@H](N)C(=O)Nc1ccc2c(C)cc(=O)oc2c1; assay: purified protein; assay type: biochemical, Acanthamoeba castellanii; conditions: 50 mM Tris-HCl, 1 mM MnCl2, pH 8.0, 37°C, 25 nM enzyme
purified protein [3] = substrate: Cc1cc(=O)oc2cc(NC(=O)[C@@H](N)CC(C)C)ccc12; assay: purified protein; assay type: biochemical, Acanthamoeba castellanii; conditions: 50 mM Tris-HCl, 1 mM MnCl2, pH 8.0, 37°C, 25 nM enzyme
purified protein [4] = substrate: Cc1cc(=O)oc2cc(NC(=O)[C@@H](N)CCCNC(=N)N)ccc12; assay: purified protein; assay type: biochemical, Acanthamoeba castellanii; conditions: 50 mM Tris-HCl, 1 mM MnCl2, pH 8.0, 37°C, 25 nM enzyme

CC(C)C[C@H](NC(=O)[C@@H](O)[C@H](N)Cc1ccccc1)C(=O)O [bestatin]
activity at 10 µM [1]: 22.5 ± 1.13%

B1: AcLAPr (recombinant AcLAP, M17 leucine aminopeptidase) (Acanthamoeba castellanii) (protein)
chain: MQGKAKCLLWGAASFRSSLRAGAASSSAASIFTRSATHRSPLLSSHGLFPSGSKLIFVAPSTFGTTKPCYSTAAGGDKQIDGVVVGIFEGGELTPAGQAIDKSTSGALTRRIKLSKKAAKGEVGGGEVFFDLGEDYPRVAVVGLGKHPRDVKLTSEQEDYREGQPKPSDAVRQGAARGARLLRDAGSKVIGVESFSEFADLPSVQLAAEGALLGLHKFDELFSKKDDEPVDVRPWGVEADKQEEWNRGKIIATAQNFARVLTDTPANLMTPTIFSQKVEEKFASLPNKADVKIFAHDKAWAEEQGMGCFLGVTQGSEEPPKFLEIHYNPLGDEAQDVAPIIFVGKGVTFDSGGISIKPSEGMGMMRGDMGGAAAVVSTVWALASLQIKTKAICLTPLCENMPSGTATKPGDVLRAKNGKTVEVDNTDAEGRLILADALVYANSFKPAAVIDVATLTGAMVVALGAGATGVFTTSDKLWREMDEAGWKTDSRVWRMPLFSSYKRQIKSAYADLKNVGGRPAGSSTAALFLKEFVETPAWMHMDIAGVMHSDDRNAYTPKGMAGEPVRTLVQWVRDKVEKH
notes: pCold TF vector, E. coli BL21 (pKJE7), Ni-NTA; N-terminal His6-trigger factor tag removed with thrombin
Km (purified protein [2]): 3.77 ± 0.46 µM
Km (purified protein [3]): 13.51 ± 1.31 µM
Km (purified protein [4]): 41.37 ± 0.05 µM
